In patent publication US20150056133A1 (Boehringer Ingelheim, published 2015):

T1: human CX3CR1 (human, UniProt P49238 1-355)
T1 construct: Presented on BA/F3-hCX3CR1, CHO-hCX3CR1 or HEK 293-hCX3CR1 cells, depending on the assay; also called hCX3CR1
T1 sequence (looked up): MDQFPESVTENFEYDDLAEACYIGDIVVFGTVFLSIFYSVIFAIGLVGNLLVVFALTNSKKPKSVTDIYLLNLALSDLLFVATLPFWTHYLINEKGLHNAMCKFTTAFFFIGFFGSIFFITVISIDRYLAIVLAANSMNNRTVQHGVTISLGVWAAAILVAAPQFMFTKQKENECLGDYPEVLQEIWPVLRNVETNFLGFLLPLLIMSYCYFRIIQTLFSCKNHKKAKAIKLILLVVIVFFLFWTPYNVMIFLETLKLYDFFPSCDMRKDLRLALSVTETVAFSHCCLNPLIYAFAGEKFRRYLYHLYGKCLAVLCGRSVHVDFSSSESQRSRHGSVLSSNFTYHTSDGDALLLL

T2: mouse CX3CR1 (mouse, UniProt Q9Z0D9 1-354)
T2 construct: whole, on cells
T2 sequence (looked up): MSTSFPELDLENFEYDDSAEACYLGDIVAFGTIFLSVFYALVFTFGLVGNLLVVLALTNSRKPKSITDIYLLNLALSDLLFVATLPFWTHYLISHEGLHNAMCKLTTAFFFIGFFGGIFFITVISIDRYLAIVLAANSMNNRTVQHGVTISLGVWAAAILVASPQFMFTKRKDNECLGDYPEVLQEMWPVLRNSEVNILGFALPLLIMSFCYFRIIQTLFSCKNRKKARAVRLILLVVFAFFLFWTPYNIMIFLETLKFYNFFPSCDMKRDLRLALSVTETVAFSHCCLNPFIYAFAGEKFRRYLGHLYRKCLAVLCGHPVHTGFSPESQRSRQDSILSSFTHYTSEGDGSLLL


Key:
[1] = target: T1, human CX3CR1; assay: competition FACS against labeled fractalkine, CHO-hCX3CR1 cells
Description: Periplasmic extracts were screened in a human CX3CR1/human fractalkine FACS competition assay to assess the ability of the expressed VHHs to block the binding of the unique CX3CR1 ligand to the receptor. Human CX3CR1 was presented on CHO cells. As a detection reagent fractalkine (R&D Systems, Minneapolis, Minn., USA) labeled with Alexa Fluor 647 (A647-Fractalkine) at a degree of labeling of 1 was used. In brief, 50 μl of periplasmic extract was added to 6 nM labeled fractalkine (50 μl) and 2E5 CHO-hCX3CR1 cells. After one hour incubation at 4° C., cells were washed three times before analysis on a FACS Array (Becton Dickinson). First a gate was set on the intact cells as determined from the scatter profile. Next, dead cells were gated out by their fluorescence profile from the PI stain (Sigma, St Louis, US). The fluorescence profile from the Alexa Fluor 647 label was determined for each sample and used for the calculation of blocking capacity. As controls, conditions were taken along where there was no VHH present in the periplasmic extract or a known irrelevant VHH and samples were included with excess cold fractalkine. For each sample the percentage block was determined using the control samples to determine the assay window. […]

[2] = target: T3, human CCR2 (human, UniProt P41597 1-374); assay: FACS binding on CHO cells expressing human CCR2, anti-cmyc detection
T3 construct: whole, on cells
T3 sequence (P41597 whole entry): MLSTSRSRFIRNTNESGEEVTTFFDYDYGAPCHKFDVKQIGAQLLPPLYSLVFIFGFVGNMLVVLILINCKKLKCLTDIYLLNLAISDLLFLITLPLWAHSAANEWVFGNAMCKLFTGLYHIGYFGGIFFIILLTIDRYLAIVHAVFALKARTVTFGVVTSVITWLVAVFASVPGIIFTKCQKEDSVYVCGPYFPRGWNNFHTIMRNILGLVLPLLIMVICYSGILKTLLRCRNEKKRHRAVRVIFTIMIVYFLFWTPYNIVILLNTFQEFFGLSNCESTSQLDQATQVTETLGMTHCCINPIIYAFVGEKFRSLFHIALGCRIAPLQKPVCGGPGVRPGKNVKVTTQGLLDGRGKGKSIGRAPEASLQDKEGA
Description: (§1) Specificity for the hCX3CR1 receptor was evaluated by performing a FACS binding experiment on CHO-K1 parental cells or CHO cells expressing human CCR2, human CCR5 or mouse CX3CR1. The VHHs were incubated with the respective cell lines for 30 minutes at 4° C. followed by three wash steps and subsequently incubated with the detection reagents. As detection, a mouse anti-cmyc antibody (Serotec, MCA2200) followed by a goat anti-mouse antibody coupled to PE (Jackson 115-116-071) was used, each incubation was for 30 minutes at 4° C. and was followed by three wash steps. For each cell line a quality control with receptor-specific antibody was included. In addition, the highest concentration of each VHH was also incubated with CHO cells expressing hCX3CR1 as a positive control. No binding to mouse CX3CR1, human CCR2 or human CCR5 could be observed.

[3] = target: T4, human CCR5 (human, UniProt P51681 1-352); assay: FACS binding on CHO cells expressing human CCR5, anti-cmyc detection
T4 construct: whole, on cells
T4 sequence (P51681 whole entry): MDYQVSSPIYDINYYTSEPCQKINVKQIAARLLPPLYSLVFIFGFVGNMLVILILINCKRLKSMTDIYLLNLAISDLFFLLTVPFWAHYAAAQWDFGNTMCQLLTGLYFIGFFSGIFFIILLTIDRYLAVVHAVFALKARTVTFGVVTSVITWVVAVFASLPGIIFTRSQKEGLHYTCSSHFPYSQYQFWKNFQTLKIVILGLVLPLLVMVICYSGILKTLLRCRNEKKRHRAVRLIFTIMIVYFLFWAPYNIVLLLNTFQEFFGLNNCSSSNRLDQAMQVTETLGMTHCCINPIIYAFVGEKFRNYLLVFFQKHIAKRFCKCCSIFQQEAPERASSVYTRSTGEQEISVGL
Description: as §1

[4] = target: T2, mouse CX3CR1; assay: FACS binding on CHO cells expressing mouse CX3CR1, anti-cmyc detection
Description: as §1

[5] = target: T1, human CX3CR1; assay: competition FACS against labeled fractalkine, HEK 293-hCX3CR1 cells
[6] = target: T1, human CX3CR1; assay: competition FACS against labeled fractalkine, BA/F3-hCX3CR1 cells

Row | Binder | IC50 [1] | binding result [2] | binding result [3] | binding result [4] | % Block [5] | IC50 [5] | IC50 [6]
1 | CX3CR1BII317 (VHH, Bivalent VHH (single polypeptide chain)) EVQLVESGGGLVQAGGSLRLSCVASGRTFSSYAMGWFRQAPGKERAFVAGISGSASRKYYADSVKGRFTVSRDNARNTVYLQMNSLKPEDTAVYYCAASNSYPKVQFDYYGQGTLVTVSSGGGGSGGGGSGGGGSGGGGSGGGGSGGGGSGGGGSEVQLVESGGGLVQAGGSLRLSCVASGRTFSSYAMGWFRQAPGKERAFVAGISGSASRKYYADSVKGRFTVSRDNARNTVYLQMNSLKPEDTAVYYCAASNSYPKVQFDYYGQGTLVTVSSAAAEQKLISEEDLNGAAHHHHHH | 3.4 nM | no binding | no binding | no binding | – | – | –
2 | CX3CR1BII318 (VHH, Bivalent VHH (single polypeptide chain)) EVQLVESGGGSVQAGESLRLSCAASGSIFSSNAMAWYRQAPGKRRDLVAAINSVGVTKYADSVKGRFTISRDNAKNTVYLQMNSLKPEDTAVYYCTSDPRRGWDTRYWGQGTQVTVSSGGGGSGGGGSGGGGSGGGGSGGGGSGGGGSGGGGSEVQLVESGGGSVQAGESLRLSCAASGSIFSSNAMAWYRQAPGKRRDLVAAINSVGVTKYADSVKGRFTISRDNAKNTVYLQMNSLKPEDTAVYYCTSDPRRGWDTRYWGQGTQVTVSSAAAEQKLISEEDLNGAAHHHHHH | – | no binding | no binding | no binding | 102% | 0.3 nM | –
3 | CX3CR1BII18E06 (VHH, Expressed in E. coli TG1 as c-myc, His6-tagged protein) VHH: KVQLVESGGGLVQPGGSLRLSCATSGTIFSNNAMGWYRQAPGKKRDLVASISSSGSTNYADSVKGRFTVSRDNDKNTGYLQMNSLKPEDTGVYYCTLDARRGWNTAYWGQGAQVTVSS | – | no binding | no binding | no binding | – | – | 2.8 nM
4 | CX3CR1BII66B02 (VHH, Expressed in E. coli TG1 as c-myc, His6-tagged protein) VHH: EVQLVESGGGSVQAGESLRLSCAASGSIFSSNAMAWYRQAPGKRRDLVAAINSVGVTKYADSVKGRFTISRDNAKNTVYLQMNSLKPEDTAVYYCTSDPRRGWDTRYWGQGTQVTVSS | – | no binding | no binding | no binding | 102% | 2.5 nM | –
5 | CX3CR1BII315 (VHH, Expressed in E. coli TG1 as c-myc, His6-tagged protein) VHH: EVQLVESGGGLVQAGGSLRLSCVASGRTFSSYAMGWFRQAPGKERAFVAGISGSASRKYYADSVKGRFTVSRDNARNTVYLQMNSLKPEDTAVYYCAASNSYPKVQFDYYGQGTQVTVSS | – | no binding | no binding | no binding | – | – | 8.1 nM
6 | CX3CR1BII316 (VHH, Expressed in E. coli TG1 as c-myc, His6-tagged protein) VHH: EVQLVESGGGSVQAGESLRLSCAASGSIFSSNAMAWYRQAPPGKQRDLVALINSVGITKYADSVKGRFTISSDNAKNTVYLEMNSLKPEDTAVYYCTSDGRRGWDTRYWGQGTQVTVSS | – | no binding | no binding | no binding | 94% | 5.3 nM | –
